Test results published in patent publication US20240009235A1 (published 2024).

Target: T1, Bob1 (gene POU2AF1) peptide on HLA-B*35:01 (human)
T1 peptide: APAPTAVVL
Assay: multimer staining

binding result: no recognition
B1: TCR 1C5.6 (TCR, V domains shown)
Valpha: AQSVTQLDSQVPVFEEAPVELRCNYSSSVSVYLFWYVQYPNQGLQLLLKYLSGSTLVESINGFEAEFNKSQTSFHLRKPSVHISDTAEYFCAVKVSNAGGTSYGKLTFGQGTILTVHP
Vbeta: DGGITQSPKYLFRKEGQNVTLSCEQNLNHDAMYWYRQDPGQGLRLIYYSQIVNDFQKGDIAEGYSVSREKKESFPLTVTSAQKNPTAFYLCASSIAQGADTQYFGPGTRLTVL
